Legend:
[1] = target: DotB from the dot/icm system encoded by the L. pneumophila genome (DotBL), wild type (L. pneumophila) (UniProt Q5ZS43); assay: SEC-MALS
DotBL = target: T1, DotBL (Legionella pneumophila, UniProt O52185)
T1 construct: gene dotB

With “DotB from the dot/icm system encoded by the L. pneumophila genome (DotBL), wild type (from UniProt Q5ZS43 1-387) (enzyme)” the stoichiometry N [1] was 6.
`Nc1ncnc2c1ncn2[C@@H]1O[C@H](COP(=O)(O)OP(=O)(O)NP(=O)(O)O)[C@@H](O)[C@H]1O` [AMP–PNP] was tested, and the “malachite green phosphate release, inhibition after 10 min preincubation” value (DotBL) was “the analogue binds and competes with ATP resulting in an inhibition of phosphate release”.

Reference: publication PMC6153414 (Protein Science : A Publication of the Protein Society, 2018)
